# Laboratory results as given in the nanobody polyreactivity screen of Harvey et al. (2022).
# Test: yeast display, Sf9 membrane polyspecificity reagent, FACS + sequencing; frameworks hold sequencing errors
# Outline: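 In a synthetic yeast display library (Saccharomyces cerevisiae BJ5465), nanobody expression was induced with galactose for 36–48 hours. FACS gates were set low and high (top ~1%) using anti-HA fluorescence for expression and streptavidin fluorescence for binding of the Sf9 membrane reagent. Each polyreactivity label is drawn from the gate of origin.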
row,Sequence,polyreactivity (PSR sort gate)
1,QVQLVESGGGLVQAGGSLRLSCAASGSIFPQYAMGWYRQAPGKERELVAAITRSGGGTHYADSVKGRFTISRDYAKNTVYFQMNSLKPEDTAVYYCAKAGYRSEFEYWGQGTQVTVSS,low polyreactivity
2,QVQLVESGGGLVQAGGSLRLSCAASGSNFPGYAMGWYRQAPGKERELVAAISTSGGSTYADSVKGRFTISRDNAKNTVYLQMNSLKPEDTAVYYCAATYTYTSPVYYSLDGPWPYDYWGQGTQVTVSS,low polyreactivity
3,QVQLVESGGGLVQAGGSLRLSCAASGSIFRGYAMGWYRQAPGKERELVAAINWSGSSTYYADSVKGRFTISRDNAKNTVYLQMYSMKPEDSAVYYCALVYYNRNLGGDYWGQGTQVTVSS,low polyreactivity
4,QVQLVESGGGLVQAGGSLRLSCAASGRTFRYYAMGWYRQAPGKERELVAAITSGGSTYYADSVKGRFTISRDNAKNTVYLLMNSLKPEDTAAYYCAAEYVYPYWNGFDYWGQGTQVTVSS,low polyreactivity
5,QVQLVESGGGLVQAGGSLRLSCAASGSIFEENAMGWYRQAPGKERELVAAITIGGRTNYADSVYGRFTISRDNAKNTVYLQMNSLKPEDTAVYYCAADLSSNKYWRFWTRYYYWGQGTQVTVSS,low polyreactivity
6,QVQLVESGGGLVQAGRTLRLSCAASGNIFDLNAMGWYRPAPGKERELVAAIDRGGGSTYYADSVKGRFTISRDNATNTVYLHMNSLKTEDTAVYYCSAVDQESNPAGGYWGQGSQVTVSS,low polyreactivity
7,QVQLVESGGGLVQAGGSLRLSCAASGRTFAIDAMGWYRQAPGKEREFVAAISWSGGDTYYADSVKGRFTISRDNAKNTVYFQMNRLKPEDTAVYYSAGRDNDYEGRDLQDELDYWGQGTQVTVSS,low polyreactivity
8,QLQLVESGGGLVQAGGSLRLSCAASGSISAVNTMGWYRQAPRKERELVATISYSTASTYYADSVKGRFTISRDNAKITVYLQINSRKPEDTAFYYCNKDGRRYAYNSEYDHWGQGTQVTVSS,low polyreactivity
9,QVQLVESGGGLVQAGGSLRLSCAASGRIFASYAMGWYRQAPGKERELVASISKSVGRTYYSDSVKGRFTISRDNAKNTVYLQMNSLKPEDTAVYDCAAISYFPLRTRYERWFYYWGQGTQVTVSS,high polyreactivity
10,QVQLVESGGGLVQAGGSLRLSCAASGRIFQGYAMGWYRQAPGKERELVASIRTGGTTNYADSVKGRFTISRDNAKNTVYLQMNRLKPEDTAVYYCNRGYYSYYGGYYYWGQGTQVTVSS,high polyreactivity
11,QVQLVESGGGLVQAGGSLRYSCAASGLIFQHNALGWYRPAPGKERELVAAISGSGGSTYYADSVKGRFTISRDNAKNTVYLQMNSLKPEDTAVYYCATDDRYYRRYYWGQGTQVTVAS,high polyreactivity
12,QVQLVESVGGLVQAGGILRLSSAASGSTFDINEKGWYRQAPGKERELVAAITWSGDSTYYADSVKGRFTISRDNAKNTVYLQMNSLKPVDTAVYYCSAYYPYSYYEDASYYYWGQGTQVTLSS,low polyreactivity
13,QVQLVESGGGLVQAGGSLRLSCAASGSISYRYAMGWYRQAPGKERELVAGISRSGGSTSYADSVKGRFTISRDNAKNTVYLQMNSLKPEDTAVYYCNRPSSLAWPWTGSFSRYDYWGQGTQVTVSS,low polyreactivity
14,QVQLVESGGGLVQAGGSLRLSCAASGSIFASNAMGWYRQAPGTERELVAAIDTSGGSTYYADSVKGRFTISRDNAKNTVYLQMNSLKPEDTAVYYCNTDWRDEYYPRYRASKFDYWGQGTQVTVSS,low polyreactivity
15,QVQLVESGGGLVQAGGSLRLSCAASGRTFSNYAMGWYRQAPGKEREFVAGIRYNGGSTYYADSVKGRFTISRDNAKNTVYLQMNSLKPEDTAVYYCAAERWFYRSKFDYWGQGTQVTVSS,high polyreactivity
16,QVQLVESGGGLVQAGGSLRLSCAASGFNFPRYVMGWYRQAPGKERELVAAINSDISTNYADSVKGRFTISRDNANNSVYLQMTSLKPEDTAVFYCADERWDDPWEFDSWGQCTQVTVSS,low polyreactivity
17,QVQLVESGGGLVQAGGSLRLSCPASGSIFSLNAMGWYRQAPGKERELVAGISWSGGSTYYADSVKGRFTISRDNAKNTVYLQMNSLKPEDTAVYYCAARRYYPYISSGPYYYWGQGTQVTVSS,high polyreactivity
18,QVQLVESGGGLVQAGGSLRLSCASSGSTFYHYAMVWYRQAPGKERELVAAISWSGGSTYYADSVKGRFTISRDNAKNTVYLQMNSLKPEDTAVYYCAARGRARQRTSFEYWGQGTQVTVSS,high polyreactivity
19,QVQLVESGGGLVQAGGSLRLSCAASGSIFPAYDMGWYRQAPGKERELVAAIDRGGSTYYADSVKGRFTISRDNAKNTVYLQMNSLKPEDTAVYYCATDGQEYPNYISSAGFDYWGQGTQVTVSS,low polyreactivity
20,QVQLVESGGGLVQAGGSLRLSCAASGNIFYRNGMGWYRQAPGKEREFVAAISRRGGSTYYADSVKGRFTISRDNAKNTVYLQMNSLKPEDTAVYYCATRYWPTNKGEYWGQGTQVTVSS,high polyreactivity
21,QVQLVESGGGLVQAGGSLRLSCAASGSIFARYAMGWYRQAPGKERELVAAITGRGGSTYYADSVKGRFTISRDNAKNTVYLHMNSLKPEDTAVYYCAPKDVRRTRGGSGDYWGQGTQVTVSS,high polyreactivity
22,QVQLVESGGGLVQAGGSLRLSCAASGRTFKWNAMGWYRQAPGKERELVAAISSRDGSTYYADSVKGRFTISRDNAKNTVYLQMNSLKPEDTAVYYCNAYFTGARQRTLGYDYWGQGTQVTVSS,low polyreactivity

row,Sequence,polyreactivity (PSR sort gate)
1,QVQLVESGRGIVQAGGSLRLSCAASGSTLNDYAMGSSRPAPGKERELVAAINGSGGSTYYADSVKGRFTISRDNAKNTVYLQMNSLKPEDTAVYYCAAATTHRRRYGYWGQGTQVTVSS,low polyreactivity
2,QVQLVESGGGLVQAGGILRLSCAASGLIIGEYDMGWYRQAPGKERELVAAMSDRGTSTYYADSVKGRFTISRDNAKNTVDLPMNSLKPEDTAVYYCATDRIYYYSWEYDYWGQGTQVTVSS,low polyreactivity
3,QVQLVESGGGLVQAGGSLRLSCAASGRTSQYYAMGWYRPAPGKERELVASISRSGRTYYADSVKGRFTISRDNAKNTVYLQMNSLKPEDTAVYYCAAAKRTTHRYPYDYWGQGTQVTVSS,high polyreactivity
4,QVQLEDSGGGLVQAGGSLRLSCAASGRTFTYYAMGWYRQAPGKERELVATISYSGGSTYYADSVKGRFTISRDNAKNTVYLQMNSLKPEDTAVYYCATSGSGPWWKLYYSGQGTQVTVSS,low polyreactivity
5,QVQLVESGGGLVQAGGSLRLSCAASGSTFSRYVMGWYRQAPGKERELVAAISSTGGSTYYADSVKGRFTISRDNAKNTVYLQMNSLKPEDTAVYYCNTTYSYGVAAARYYYWGQGTQVTVSS,high polyreactivity
6,QVQLVESGGGLVQAGGSLRLTCAASGSTIADNAMGWYRPAPGTERELVAGITRRGGSTYYADSVKGRFTISRDNAKNTVYLQMNSLKPEDTAVYYCNKGPVRGRYSVWPIEMDYWGQGTQVTVSS,low polyreactivity
7,QVQLVESGGGLVQAGGSLRLICAASGSTLVVNAMGWYRQAPGKERELVAAITSGGSTNYADSVKGRFTISRDNAKNTVYLQMNSLKPEDTAVYYCNAERGRSFWWAYDYWGQGTQVTVSS,low polyreactivity
8,QVQLVESGGGLVQAGGSLRLSCAASGSTFGYNTMGWYRQAPGKERELVAAITSGGRTYYADSVKGRFTISRDNAKNTVYLQMNILKPEDTAVYYCAAYYWWGYPENDYWGQGTQVTVSS,high polyreactivity
9,QVQLVESGGGLVQAGGSLRLSCAASGNIIDFYAMGWYRQAPGKERELVAAITSGGSTNFADSVKGRFTISRDNAKNTVYLQMNSLKPEDTAVYYCAARQWFSHRRWGGSRYDYWGQGTQVTVSS,high polyreactivity
10,QVQLVESGGGLVQAGGSLRFSCAASGSIFSSYDMGWYRQAPGKERELVAAITRGGTTNYADSVKGRFTISRDNAKNTVYLQMNSLKPEDTAVYYCNVAYGLLGISPGGDYWGQGTQVTVSS,low polyreactivity
11,QVQHVESVGGLVQAGGSLRLSCAASGITFNYNAMGWYRQAPGKERELVAAIRGSDSTTYYADSVKGRFTISRDNAKNTVYLQMNSLKPEDTAVYYCAAVGVVPRKKSARVYYWGQGTQVTVSS,low polyreactivity
12,QDQLVESGGALVQPGGSLRLSCAASGRLLGRYAMGWYRQAPGKDRELVATITSGDDTNYADSVKGRFTISRDNAKNTVYLQMNSLKPEDTAVGYWGQGTQVTVSS,low polyreactivity
13,QVQLVESGGCLVQAGGSLRLSCASSGSTFTHYAMGWYIQSPGKERELVAAISSGGSTYYADSVKGRFTISRDNAKNTVYLQMNSLKPEDTAVYYCAADYYLHDWWYPHDYWGQGTQVTVSS,low polyreactivity
14,QVQLVESGGGLVQAGGSLRLSCAASGGIFYTYAMGWYRQAPGKERELVAAISSSGGSTYYADSVKGRFTISRDNAKNTVYLQMNSLKPEDTAVYYCAKDSSTGAGARRRYGYWGQGTQVTVSS,low polyreactivity
15,QVQLVESGGGLVQAGGSLRLSCAASGSIFSTYAMGWYRQAPGKERELVATIRRGGSTYYADSVKGRFTISRDNAKNTVYLQMNSLKPEDTAVYYCAATVSSYPYYRYYSWGQGTQVTVSS,high polyreactivity
16,QVQLVESGGGLVQAGGSLRLSCAASGSIFNYYAMGWYRQAPGKERELVAAISSGDTTYYADSVKGRFTISRDNAKNTVYLQMNSLKPQDTAVYYCAAKPRSQVRYGYWGQGTQVTVSS,low polyreactivity
17,QVQLVESGGGLVQAGGSLRLSCAASGRTLIYYAMGWYRQAPGKERELVAAISSSGTSTYYADSVKGRFTISRDNAKNTVYLQMNSLKPEDTAVYYCAADGRTLGRRYYYWGQGTQVTVSS,high polyreactivity
18,QVQLVESGGGLVQAGGSLRLSCAASGRIFKYNAKGWYRQAPGKERELVAAISGTGGSTYYADSVKGRFTISRDNAKNTVYLQMNSLKPEDTAVYYCNRRYYGHSTWKYDYWAQGTQVTVSS,high polyreactivity
19,QVQLVDSGGGLVQAGGSLRLSCAASGRTFGAYDMGWYRQAPGKERELVAAISSGATTNYADSVKGRFTISRDNAKNTVYLQMNSLKPEDTAVYYCAASVYRYIYAFNYWGQGTQVTVSS,low polyreactivity
20,QVQLVESGGGLVQAGGSLRLSCAASGFTFSDNAMGWYRQAPGKERELVAAISRSGGRTYYADSVKGRFTISRDNAKNTVYLQMNSLKPEDTAVYYCAAYQYGMDYWGQGTQVTVSS,high polyreactivity
21,QVQLVESGGGLVQAGGSLRLSCAASGSIFDPYAMGWYRQAPGKERELVAAITSDGSTNYADSVKGRFTISRDNAKNTVYLQMNSLKPEDTAVYYCAARYNLGEYDYWGQGTQVTVSS,low polyreactivity
